This experiment has as its target T1, CD122-Fc (UniProt P14784 27-240, limits assumed).
T1 construct: Analyte flowed over the chip in SPR at 500, 250, 125, 62.5 and 31.25 nM; also called Fc-CD122; IL-2Rbeta
T1 sequence (looked up): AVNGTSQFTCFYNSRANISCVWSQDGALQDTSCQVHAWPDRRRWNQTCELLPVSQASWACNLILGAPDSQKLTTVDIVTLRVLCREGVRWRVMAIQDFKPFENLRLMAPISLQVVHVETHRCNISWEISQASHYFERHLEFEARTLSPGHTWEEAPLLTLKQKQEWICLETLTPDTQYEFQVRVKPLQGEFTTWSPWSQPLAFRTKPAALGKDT
The experiment is described as follows: SPR, protease-cleaved construct amine-coupled on chip, CD122-Fc flowed.

Protocol: For SPR studies testing binding of masked and non-masked IL-2 polypeptide constructs, Reichert Carboxymethyl Dextran Hydrogel Surface Sensor Chips were coated and immobilized with the construct of interest (e.g., a masked IL-2 polypeptide construct or non-masked IL-2 polypeptide construct) at 30 ug/ml in 10 mM Sodium Acetate, pH 5.0 via amine coupling with EDC and NHS. […] Using a Reichert 4Channel SPR, dilutions of CD25 or CD122 were flowed over the clips with the immobilized construct to determine the on rate at 25 degrees C. At equilibrium (approximately 3 minutes), the flow buffer was changed to PBST, to determine the off rates over 6 minutes. Between each run the chip was regenerated with 10 mM glycine, pH 2.0.
For some structures, when applicable, the KD was determined for the construct with or without having been previously cleaved by a protease.

B1: AK168 after protease cleavage (ligand)
chain: LYHPSGPAPTSSSTKKTQLQLEHLLLDLQMILNGINNYKNPKLTAMLTAKFAMPKKATELKHLQCLEEALKPLEEVLNLAQSKNFHLRPRDLISNINVIVLELKGSETTFMCEYADETATIVEFLNRWITFAQSIISTLT
notes: also called AK168 Cleavage Product
B1 returned a dissociation constant (Kd) of 175 nM. This counts as sub-micromolar.

As usually defined, the Kd is the equilibrium constant for the complex coming apart. The low end stands for higher affinity, the high end for lower affinity.

Source of the values: US20230151072A1 (XILIO DEVELOPMENT, published 2023).
